Source: US20040001839A1, “Multimers - isolated molecules comprising epitopes containing sulfated moieties, antibodies to such epitopes, and uses thereof” (priority 2000, published 2004)

B1: S-S Y1 dimer: disulfide bridge dimer of Y1 scFv compared with CONY1 and Y1-IgG in Example 12 (protein)
scFv 1: MEVQLVESGGGVVRPGGSLRLSCAASGFTFDDYGMSWVRQAPGKGLEWVSGINWNGGSTGYADSVKGRFTISRDNAKNSLYLQMNSLRAEDTAVYYCARMRAPVIWGQGTLVTVSRGGGGSGGGGSGGGGSSELTQDPAVSVALGQTVRITCQGDSLRSYYASWYQQKPGQAPVLVIYGKNNRPSGIPDRFSGSSSGNTASLTITGAQAEDEADYYCNSRDSSGNHVVFGGGTKLTVLGGGGCKAK
scFv 2: B1 scFv 1
B2: CONY1: scFv derived from Y1 scFv, myc tag replaced by lysine, alanine, lysine (KAK); SEQ ID NO:204 (protein, listed as Homo sapiens)
scFv: MKYLLPTAAAGLLLLAAQPAMAEVQLVESGGGVVRPGGSLRLSCAASGFTFDDYGMSWVRQAPGKGLEWVSGINWNGGSTGYADSVKGRFTISRDNAKNSLYLQMNSLRAEDTAVYYCARMRAPVIWGQGTLVTVSRGGGGSGGGGSGGGGSSELTQDPAVSVALGQTVRITCQGDSLRSYYASWYQQKPGQAPVLVIYGKNNRPSGIPDRFSGSSSGNTASLTITGAQAEDEADYYCNSRDSSGNHVVFGGGTKLTVLGAAAKAK

Columns and labels:
KG-1 cells [1] = assay: Radioreceptor binding assay with KG-1 cells; design: species or system human; conditions: 2 ng/tube 125I-Y1-IgG tracer
Experimental: The assay system involved the use of radioactive ligands that were prepared by iodination with ^125I using chloramine T on the Y1-IgG construct or the Bolton-Hunter (CONY1) reagent. The assay tubes contained 5×10^6 KG-1 cells per 0.2 ml and a labeled tracer with varying amounts of unlabeled competitor, in PBS+0.1% BSA, pH 7.4. After one hour incubation with agitation at 4° C., the cells were thoroughly washed with cold buffer and taken for radioactivity counting.
For the radio receptor binding assay (RRA), 2 ng/tube of ^125I-Y1-IgG was used, and competition was performed with each of the three molecules. […] A rough estimate of the affinity of the Y1-IgG in this experiment is 2×10^−8 M. The corresponding affinity of the dimer is, therefore, 4×10^−8 M.
In a second RRA using labeled CONY1, a 100 ng/tube of ^125I-Y1-IgG was used, and competition was performed with each of the three molecules. […] A rough estimate of the affinity of CONY 1 in this experiment is 10^−6M. The corresponding affinity of the dimer is, therefore, 5×10^−8 M.

[2] = target: T1, GPIb (glycocalicin) derived from platelets (Homo sapiens, UniProt P07359); assay: ELISA of monomer and dimer to GPIb (glycocalicin); format: binding
T1 construct: glycocalicin (soluble, extracellular fragment of GPIbα); from tissue; host or cells: human platelets
Experimental: An ELISA assay was performed to ascertain the differences in binding between the monomer (the Y1 scFv-also known as Y1-kak) and the dimer Y1-cys-kak (the cysteine dimer) for antigen GPIb (glycocalicin) derived from platelets. A polyclonal anti single chain antibody and/or a novel polyclonal anti-VL (derived from rabbits) and anti-rabbit HRP, were used to detect the binding to GPIb. […] For instance, to reach 0.8 OD units 12.8 μg/ml of monomer was used compared to only 0.1 μg/ml of dimer.
100 ml of purified glycocalicin was incubated in a 96 flat well maxisorp plates, overnight at 4 degrees celsius. The plate was washed with PBST (PBS+0.05% tween) 3 times, then […] of PBST-milk (PBST+2% Non fat milk), for 1 hr at room temperature. The plate was washed with PBST, and the monomer or dimer (100 ml) was added in PBST-milk at different concentrations for 1 hr at room temp. Then the plate was washed and anti-VL polyclonal (derived from immunized rabbits with VL derived from Y1) (1:100 diluted in PBST-milk) was added for an hour. The plate was washed and anti-rabbit HRP was added for an additional hour. The plate was washed 5 times and 100 μl TMB substrate was added for approximately 15 minutes then 100 μl of 0.5 H2SO4 was added to stop the reaction. The optical density of the plate was measured at 450 nm in an ELISA reader.

[3] = Pharmacokinetics of 125I-CONY1 after intravenous injection in mice; format: in vivo, Balb-C mice; conditions: 15 μg per mouse i.v.; plasma TCA-precipitable radioactivity, two-compartment model
Experimental: Two to four mice were used per time point. […] Organ/tissue total and specific radioactivity values were calculated.

MOLT-4 cells = assay: T-ALL (MOLT4) model in SCID mice; format: in vivo
Experimental: The in vivo mouse model for T-ALL uses SCID mice (Jackson Laboratories) injected with MOLT4 cells derived from a T cell leukemia patient.
In one experiment, SCID mice were pretreated with 100 mg/kg Cytoxan (CTX, Cyclophosphamid for injection, Mead Johnson). Eleven days after CTX injection, MOLT-4 cells were injected intravenously into the tail vein. Control mice were injected with PBS alone. One week post-MOLT-4 injection mice were injected with CONY1-Doxorubicin, which is a conjugate between scFv CON Y1 polypeptide, having KAK amino acid residues at its carboxy end and doxorubicin via a short organic linker; CONY1, which is a scFv antibody fragment derived from Y1 scFv in which the DNA sequences encoding the myc tag of Y1 were deleted and replaced with a DNA sequence encoding the amino acids lysine, alanine, lysine (KAK); or free Doxorubicin. The mice were injected three times per week for three weeks. […] (Table M).
Mice started to die 32 days post cell inoculation, and the surviving mice were sacrificed at this time. Bone marrow cells were analyzed by flow cytometry using anti-human CD44-FITC and Y1-Biotin/SAV-PE. Blood samples from several animals were monitored for platelet and white blood cell count. Livers were weighted and examined for tumor appearance. Other organs were also examined for tumor appearance.
In a second experiment, SCID mice were i.v. injected with 2×10^7 MOLT-4 cells/mouse, 5 days post treatment with cyclophosphamide. Anti-cancer agents or PBS (negative control animals) were injected i.v. three times/week from day 5 post MOLT-4 cells injection and onward. On day 35, blood was drawn from the animals, the animals were sacrificed, and their livers were excised and weighed. In the untreated, PBS-treated MOLT-4 cell-bearing animals, the liver presented with a very massive tumor growth, and its size was increased 2-3-fold relative to PBS control uninfected animals. In this experiment, there were five treatment groups:
In parallel, portions of liver tissue were taken for histology and cell harvesting for FACS analysis. The survival rate of another group of treated animals was recorded relative to that of control untreated mice.
In a third experiment, using the identical SCID/MOLT-4 protocol, there were 6 groups: […]

KG-1 cells [4] = assay: AML KG-1 model in NOD/SCID mice; format: in vivo
Experimental: The in vivo mouse model for human AML uses SCID/NOD mice (Jackson Laboratories) inoculated with KG-1 cells derived from a human AML cell line.
In a first experiment, NOD/SCID mice were pretreated with 100 mg/kg CYTOXAN®. Four days post CYTOXAN® injection, KG-1 cells were injected intravenously into the tail vein of six groups of mice. (Table N, Groups 2 and 5-9). One group of mice (Table N, Group 1) was injected with PBS alone (control). [273.][273.]
Beginning 19 days post KG-1 injection mice were treated with: CONY1, Doxorubicin, CONY1-Doxorubicin conjugate, or Mylotarg®. (Mylotarg® is a monoclonal antibody (anti CD33) conjugated chemically to calcheamicin recently approved by the FDA for treatment of AML patients age 60 and over in a first relapse.) Mice were treated once or three times per week for three weeks. […]
Mice were sacrificed from 60 to 65 days post cell injection. Bone marrow and blood samples were analyzed by flow cytometry using mouse anti human CD34-FITC (IQP 144F) (or anti CD44-FITC (MCA89F, Serotec)) and Y1-Biotin/SAV-PE. […]
An additional experiment was performed in which SCID-NOD mice were i.v. injected with 3×10^4 MOLT-4 cells/mouse 5 days post treatment with cyclophosphamide. […] Bone marrow was extracted and analyzed by FACS analysis using a commercially available antiCD44 antibody for the detection of MOLT-4 cells in the mice bone marrow cell population.

| Molecule | affinity relative to the full Y1 antibody (KG-1 cells [1]) | concentration used to reach 0.8 OD units [2] | half-life of blood clearance, second compartment [3] | liver weight versus mice treated with free Doxorubicin or left untreated (MOLT-4 cells; first experiment, 3 times per week for three weeks, sacrificed 32 days post cell inoculation) | tumor growth in the liver (liver weights, day 35) (MOLT-4 cells; second experiment, 75 μg/mouse i.v. three times/week from day 5) | tumor growth (based on liver weights) (MOLT-4 cells; third experiment, 75 μg/mouse) | survival (MOLT-4 cells; three groups with continued treatment) | percentage of KG-1 cells in bone marrow (KG-1 cells [4]; KG-1 cells incubated in vitro with scFv (0.25 mg/10^8 cells) before injection (groups 3 and 4)) | development of the malignancy (cancer cells in bone marrow, day 60) (KG-1 cells [4]; additional experiment, 75 μg/mouse i.v. three times/week from day 14) |
| --- | --- | --- | --- | --- | --- | --- | --- | --- | --- |
| B1 | twofold lower | – | – | – | – | – | – | – | – |
| B2 | – | 12.8 µg/mL | 3.17 h | weighted significantly less | markedly inhibited tumor growth in the liver | inhibited tumor growth | prolonged | significantly lower percentage of KG-1 cells | no effect |
